Our source for the binding result and Kd values is doi:10.1101/2024.09.22.614354 (bioRxiv, 2024).

Where a chain is given by its changes, count along the chain named.

What all share (test): fluorescence polarisation
For orientation: In fluorescence polarisation assays a small probe gives low polarisation when free and higher when bound to something large.

One assay concerns the target T1, Rb^P S534R (human, UniProt P06400 380-788, S534R).
T1 sequence: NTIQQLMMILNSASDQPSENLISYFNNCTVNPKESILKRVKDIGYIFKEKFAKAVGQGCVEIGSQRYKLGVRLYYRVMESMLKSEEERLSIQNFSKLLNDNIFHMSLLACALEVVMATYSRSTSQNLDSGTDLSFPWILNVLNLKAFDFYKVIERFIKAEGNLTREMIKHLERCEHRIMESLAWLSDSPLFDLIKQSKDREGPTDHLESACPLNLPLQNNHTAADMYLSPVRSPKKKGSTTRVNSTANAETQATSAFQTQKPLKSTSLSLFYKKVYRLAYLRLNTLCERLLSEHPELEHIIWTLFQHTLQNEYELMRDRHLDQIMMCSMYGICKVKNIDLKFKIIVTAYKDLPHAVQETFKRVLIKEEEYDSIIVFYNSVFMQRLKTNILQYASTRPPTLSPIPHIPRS

A further assay concerns the target T2, Rb^P M695I (human, UniProt P06400 380-788, M695I).
T2 sequence: T1 sequence with R155S, M316I

The target of the next assay is T3, Rb^P K530I (human, UniProt P06400 380-788, K530I).
T3 sequence: T1 sequence with K151I, R155S

Another assay addresses T4, Rb^P R741C (human, UniProt P06400 380-788, R741C).
T4 sequence: T1 sequence with R155S, R362C

In another assay the target is T5, Rb^P I703F (human, UniProt P06400 380-788, I703F).
T5 sequence: T1 sequence with R155S, I324F

What is called Kd is the equilibrium constant for the complex coming apart. Low readings indicate a tighter complex, high ones a looser complex. Consider DLYCYEQLN (not fully specified; TMR fluorescent label (TMR-E7^LxCxE)) [TMR-E7^LxCxE (LxCxE peptide of the E7 oncoprotein from HPV, TMR-labeled)], for which the binding result with Rb^P S534R, with Rb^P M695I, with Rb^P K530I and in the assay with Rb^P R741C was “binds” in each case. In the assay with Rb^P I703F, this molecule returned a Kd of 53 nM.
